Values quoted from earlier work, collected in patent US20070276019A1, “Haloalkyl Containing Compounds as Cysteine Protease Inhibitors” (Axys Pharmaceuticals, Inc., priority 2003, published 2007).

Settings: clinical trials

OKT3: murine monoclonal antibody directed towards CD-3 domain of activated T-cells
patients administered OKT3 that produce antibodies versus the therapy: 20-40%
